Assay results: PMC4593227, “Biochemical effects of mutations in the gene encoding the alpha subunit of eukaryotic initiation factor (eIF) 2B associated with Vanishing White Matter disease” (BMC Medical Genetics, 2015)

B1: His6-myc-tagged wild-type eIF2Bα [human] / myc-tagged eIF2Bγ [not stated] (parent)
chain 1: MDDKELIEYFKSQMKEDPDMASAVAAIRTLLEFLKRDKGETIQGLRANLTSAIETLCGVDSSVAVSSGGELFLRFISLASLEYSDYSKCKKIMIERGELFLRRISLSRNKIADLCHTFIKDGATILTHAYSRVVLRVLEAAVAAKKRFSVYVTESQPDLSGKKMAKALCHLNVPVTVVLDAAVGYIMEKADLVIVGAEGVVENGGIINKIGTNQMAVCAKAQNKPFYVVAESFKFVRLFPLNQQDVPDKFKYKADTLKVAQTGQDLKEEHPWVDYTAPSLITLLFTDLGVLTPSAVSDELIKLYL
chain 2: MEFQAVVMAVGGGSRMTDLTSSIPKPLLPVGNKPLIWYPLNLLERVGFEEVIVVTTRDVQKALCAEFKMKMKPDIVCIPDDADMGTADSLRYIYPKLKTDVLVLSCDLITDVALHEVVDLFRAYDASLAMLMRKGQDSIEPVPGQKGKKKAVEQRDFIGVDSTGKRLLFMANEADLDEELVIKGSILQKHPRIRFHTGLVDAHLYCLKKYIVDFLMENGSITSIRSELIPYLVRKQFSSASSQQGQEEKEEDLKKKELKSLDIYSFIKEANTLNLAPYDACWNACRGDRWEDLSRSQVRCYVHIMKEGLCSRVSTLGLYMEANRQVPKLLSALCPEEPPVHSSAQIVSKHLVGVDSLIGPETQIGEKSSIKRSVIGSSCLIKDRVTITNCLLMNSVTVEEGSNIQGSVICNNAVIEKGADIKDCLIGSGQRIEAKAKRVNEVIVGNDQLMEI
B2: His6-myc-tagged wild-type eIF2Bα [human] / myc-tagged eIF2Bβ [not stated] (parent)
chain 1: B1 chain 1
chain 2: MPGSAAKGSELSERIESFVETLKRGGGPRSSEEMARETLGLLRQIITDHRWSNAGELMELIRREGRRMTAAQPSETTVGNMVRRVLKIIREEYGRLHGRSDESDQQESLHKLLTSGGLNEDFSFHYAQLQSNIIEAINELLVELEGTMENIAAQALEHIHSNEVIMTIGFSRTVEAFLKEAARKRKFHVIVAECAPFCQGHEMAVNLSKAGIETTVMTDAAIFAVMSRVNKVIIGTKTILANGALRAVTGTHTLALAAKHHSTPLIVCAPMFKLSPQFPNEEDSFHKFVAPEEVLPFTEGDILEKVSVHCPVFDYVPPELITLFISNIGGNAPSYIYRLMSELYHPDDHVL

Variants of: B1
Experiment: Ni2+ agarose affinity purification (pull-down), western blot for myc tag, quantified
Conditions: with myc-tagged eIF2Bγ; HEK293 cell lysates; 3 independent experiments; read off a plot
With chain 1 MDDKELIEYFKSQMKEDPDMASAVAAIRTLLEFLKRDKGETIQGLRANLTSAIETLCGVDSSVAVSSGGELFLRFISLASLEYSDYSKCKKIMIERGELFLRRISLSRNKIADLCHTFIKDGATILTHAYSRVVLRVLEAAVAAKKRFSVYVTESQPDLSGKKMAKALCHLNVPVTVVLDAAVGYIMEKADLVIVGAEGVVENGGIIYKIGTNQMAVCAKAQNKPFYVVAESFKFVRLFPLNQQDVPDKFKYKADTLKVAQTGQDLKEEHPWVDYTAPSLITLLFTDLGVLTPSAVSDELIKLYL [chain 1 N208Y] the ratio to parent was 1.2.
chain 1 MDDKELIEYFKSQMKEDPDMASAVAAIRTLLEFLKRDKGETIQGLRANLTSAIETLCGVDSSVAVSSGGELFLRFISLASLEYSDYSKCKKIMIERGELFLRRISLSRNKIADLCHTFIKDGATILTHAYSRVVLRVLEAAVAAKKRFSVYVTESQPDLSGKKMAKALCHLNVPVTVVLDAAVGYIMEKADLVIVGAEGVVENGGIINKIGTNQMAVCAKAQNKPFYVVAESFKFVRLFPLNQQDVPDKFKYKADTLKVAQTGQDLKEEHPWVDYTARSLITLLFTDLGVLTPSAVSDELIKLYL [chain 1 P278R] gave a ratio to parent of 0.95.

Variants of: B2
Experiment: as above
Conditions: with myc-tagged eIF2Bβ; HEK293 cell lysates; 3 independent experiments; read off a plot
Work on chain 1 MDDKELIEYFKSQMKEDPDMASAVAAIRTLLEFLKRDKGETIQGLRANLTSAIETLCGVDSSVAVSSGGELFLRFISLASLEYSDYSKCKKIMIERGELFLRRISLSRNKIADLCHTFIKDGATILTHAYSRVVLRVLEAAVAAKKRFSVYVTESQPDLSGKKMAKALCHLNVPVTVVLDAAVGYIMEKADLVIVGAEGVVENGGIIYKIGTNQMAVCAKAQNKPFYVVAESFKFVRLFPLNQQDVPDKFKYKADTLKVAQTGQDLKEEHPWVDYTAPSLITLLFTDLGVLTPSAVSDELIKLYL [chain 1 N208Y] yielded a ratio to parent of 1.
chain 1 MDDKELIEYFKSQMKEDPDMASAVAAIRTLLEFLKRDKGETIQGLRANLTSAIETLCGVDSSVAVSSGGELFLRFISLASLEYSDYSKCKKIMIERGELFLRRISLSRNKIADLCHTFIKDGATILTHAYSRVVLRVLEAAVAAKKRFSVYVTESQPDLSGKKMAKALCHLNVPVTVVLDAAVGYIMEKADLVIVGAEGVVENGGIINKIGTNQMAVCAKAQNKPFYVVAESFKFVRLFPLNQQDVPDKFKYKADTLKVAQTGQDLKEEHPWVDYTARSLITLLFTDLGVLTPSAVSDELIKLYL [chain 1 P278R] gave a ratio to parent of 0.66.
